Test results taken from the supplement of paper PMC9876800.

Tested on: peptide library, one residue held at a place counted from the S/T acceptor
Assay: relative phosphorylation of the sub-library (ratio to the mean residue at this position); higher = residue favoured
In short: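 Purified recombinant kinases were reacted in 384-well plates with biotinylated degenerate peptide sub-libraries, each having one residue fixed at one position around a central Ser/Thr. The reaction mix contained 50 μM peptide plus 50 μM ATP spiked with γ-32P-ATP and ran for 90 min under kinase-specific conditions. Relative sub-library phosphorylation, taken from densitometry of phosphorimaged streptavidin membrane spots, is a ratio to the mean residue at that position.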

Chain of BRSK1, construct: Full length, human (Q8TDC3 whole entry, looked up): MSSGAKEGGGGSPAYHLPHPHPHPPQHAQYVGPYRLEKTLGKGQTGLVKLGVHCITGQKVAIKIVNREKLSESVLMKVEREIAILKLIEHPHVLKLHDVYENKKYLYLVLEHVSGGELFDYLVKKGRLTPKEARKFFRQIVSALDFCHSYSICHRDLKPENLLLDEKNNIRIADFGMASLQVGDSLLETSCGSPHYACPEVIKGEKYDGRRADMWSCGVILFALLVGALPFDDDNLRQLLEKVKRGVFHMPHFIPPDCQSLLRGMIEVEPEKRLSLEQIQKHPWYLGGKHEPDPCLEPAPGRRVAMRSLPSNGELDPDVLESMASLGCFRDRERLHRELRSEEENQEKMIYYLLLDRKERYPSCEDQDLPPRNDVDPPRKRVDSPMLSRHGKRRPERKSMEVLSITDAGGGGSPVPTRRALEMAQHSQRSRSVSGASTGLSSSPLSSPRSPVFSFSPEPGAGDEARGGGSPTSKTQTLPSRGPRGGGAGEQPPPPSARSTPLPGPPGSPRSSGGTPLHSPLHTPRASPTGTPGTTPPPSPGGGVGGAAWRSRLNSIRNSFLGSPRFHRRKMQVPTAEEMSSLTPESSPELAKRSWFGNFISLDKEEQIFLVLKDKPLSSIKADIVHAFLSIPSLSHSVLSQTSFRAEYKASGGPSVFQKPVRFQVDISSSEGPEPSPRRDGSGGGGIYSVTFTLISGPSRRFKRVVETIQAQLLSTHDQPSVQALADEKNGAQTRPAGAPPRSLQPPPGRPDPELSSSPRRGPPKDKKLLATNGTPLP

BRSK1, construct: Full length, human (from UniProt Q8TDC3)
relative phosphorylation (A fixed, at +1): 0.673
relative phosphorylation (A fixed, at +2): 0.575
relative phosphorylation (A fixed, at +3): 0.697
relative phosphorylation (A fixed, at +4): 0.51
relative phosphorylation (A fixed, at -1): 1.03
relative phosphorylation (A fixed, at -2): 2.4
relative phosphorylation (A fixed, at -3): 0.781
relative phosphorylation (A fixed, at -4): 1.28
relative phosphorylation (A fixed, at -5): 1.05
relative phosphorylation (D fixed, at +1): 0.631
relative phosphorylation (D fixed, at +2): 0.801
relative phosphorylation (D fixed, at +3): 2.83
relative phosphorylation (D fixed, at +4): 0.644
relative phosphorylation (D fixed, at -1): 0.813
relative phosphorylation (D fixed, at -2): 0.773
relative phosphorylation (D fixed, at -3): 0.334
relative phosphorylation (D fixed, at -4): 0.552
relative phosphorylation (D fixed, at -5): 0.451
relative phosphorylation (E fixed, at +1): 0.649
relative phosphorylation (E fixed, at +2): 0.672
relative phosphorylation (E fixed, at +3): 0.947
relative phosphorylation (E fixed, at +4): 0.556
relative phosphorylation (E fixed, at -1): 0.748
relative phosphorylation (E fixed, at -2): 0.6
relative phosphorylation (E fixed, at -3): 0.374
relative phosphorylation (E fixed, at -4): 0.678
relative phosphorylation (E fixed, at -5): 0.494
relative phosphorylation (F fixed, at +1): 1.67
relative phosphorylation (F fixed, at +2): 1.41
relative phosphorylation (F fixed, at +3): 1.4
relative phosphorylation (F fixed, at +4): 1.09
relative phosphorylation (F fixed, at -1): 0.72
relative phosphorylation (F fixed, at -2): 1.04
relative phosphorylation (F fixed, at -3): 0.522
relative phosphorylation (F fixed, at -4): 0.648
relative phosphorylation (F fixed, at -5): 1.12
relative phosphorylation (G fixed, at +1): 0.458
relative phosphorylation (G fixed, at +2): 0.349
relative phosphorylation (G fixed, at +3): 0.67
relative phosphorylation (G fixed, at +4): 0.572
relative phosphorylation (G fixed, at -1): 1.24
relative phosphorylation (G fixed, at -2): 1.12
relative phosphorylation (G fixed, at -3): 0.616
relative phosphorylation (G fixed, at -4): 1.29
relative phosphorylation (G fixed, at -5): 0.961
relative phosphorylation (H fixed, at +1): 0.966
relative phosphorylation (H fixed, at +2): 1.64
relative phosphorylation (H fixed, at +3): 1.02
relative phosphorylation (H fixed, at +4): 0.623
relative phosphorylation (H fixed, at -1): 1.08
relative phosphorylation (H fixed, at -2): 1
relative phosphorylation (H fixed, at -3): 1.1
relative phosphorylation (H fixed, at -4): 1.19
relative phosphorylation (H fixed, at -5): 0.765
relative phosphorylation (I fixed, at +1): 0.636
relative phosphorylation (I fixed, at +2): 0.435
relative phosphorylation (I fixed, at +3): 0.353
relative phosphorylation (I fixed, at +4): 3.13
relative phosphorylation (I fixed, at -1): 0.494
relative phosphorylation (I fixed, at -2): 0.534
relative phosphorylation (I fixed, at -3): 0.235
relative phosphorylation (I fixed, at -4): 0.422
relative phosphorylation (I fixed, at -5): 0.943
relative phosphorylation (K fixed, at +1): 0.703
relative phosphorylation (K fixed, at +2): 0.256
relative phosphorylation (K fixed, at +3): 0.669
relative phosphorylation (K fixed, at +4): 0.597
relative phosphorylation (K fixed, at -1): 1.24
relative phosphorylation (K fixed, at -2): 1.25
relative phosphorylation (K fixed, at -3): 2.41
relative phosphorylation (K fixed, at -4): 2.03
relative phosphorylation (K fixed, at -5): 1.25
relative phosphorylation (L fixed, at +1): 1.12
relative phosphorylation (L fixed, at +2): 0.672
relative phosphorylation (L fixed, at +3): 0.529
relative phosphorylation (L fixed, at +4): 2.95
relative phosphorylation (L fixed, at -1): 0.951
relative phosphorylation (L fixed, at -2): 0.476
relative phosphorylation (L fixed, at -3): 0.32
relative phosphorylation (L fixed, at -4): 0.56
relative phosphorylation (L fixed, at -5): 1.09
relative phosphorylation (M fixed, at +1): 3.06
relative phosphorylation (M fixed, at +2): 0.841
relative phosphorylation (M fixed, at +3): 0.614
relative phosphorylation (M fixed, at +4): 1.67
relative phosphorylation (M fixed, at -1): 1.17
relative phosphorylation (M fixed, at -2): 0.627
relative phosphorylation (M fixed, at -3): 0.546
relative phosphorylation (M fixed, at -4): 0.829
relative phosphorylation (M fixed, at -5): 1.55
relative phosphorylation (N fixed, at +1): 1.08
relative phosphorylation (N fixed, at +2): 1.1
relative phosphorylation (N fixed, at +3): 2.82
relative phosphorylation (N fixed, at +4): 0.835
relative phosphorylation (N fixed, at -1): 0.94
relative phosphorylation (N fixed, at -2): 0.902
relative phosphorylation (N fixed, at -3): 0.596
relative phosphorylation (N fixed, at -4): 0.699
relative phosphorylation (N fixed, at -5): 0.637
relative phosphorylation (P fixed, at +1): 0.306
relative phosphorylation (P fixed, at +2): 0.467
relative phosphorylation (P fixed, at +3): 0.32
relative phosphorylation (P fixed, at +4): 0.628
relative phosphorylation (P fixed, at -1): 1.53
relative phosphorylation (P fixed, at -2): 0.735
relative phosphorylation (P fixed, at -3): 0.673
relative phosphorylation (P fixed, at -4): 1.48
relative phosphorylation (P fixed, at -5): 0.939
relative phosphorylation (Q fixed, at +1): 1.18
relative phosphorylation (Q fixed, at +2): 1.13
relative phosphorylation (Q fixed, at +3): 1.15
relative phosphorylation (Q fixed, at +4): 0.714
relative phosphorylation (Q fixed, at -1): 0.996
relative phosphorylation (Q fixed, at -2): 0.734
relative phosphorylation (Q fixed, at -3): 0.755
relative phosphorylation (Q fixed, at -4): 0.985
relative phosphorylation (Q fixed, at -5): 0.829
relative phosphorylation (R fixed, at +1): 0.985
relative phosphorylation (R fixed, at +2): 0.357
relative phosphorylation (R fixed, at +3): 0.729
relative phosphorylation (R fixed, at +4): 0.575
relative phosphorylation (R fixed, at -1): 1.34
relative phosphorylation (R fixed, at -2): 1.7
relative phosphorylation (R fixed, at -3): 6.17
relative phosphorylation (R fixed, at -4): 2.19
relative phosphorylation (R fixed, at -5): 2.01
relative phosphorylation (V fixed, at +1): 0.73
relative phosphorylation (V fixed, at +2): 0.381
relative phosphorylation (V fixed, at +3): 0.405
relative phosphorylation (V fixed, at +4): 0.861
relative phosphorylation (V fixed, at -1): 0.75
relative phosphorylation (V fixed, at -2): 1.01
relative phosphorylation (V fixed, at -3): 0.311
relative phosphorylation (V fixed, at -4): 0.678
relative phosphorylation (V fixed, at -5): 0.857
relative phosphorylation (W fixed, at +1): 0.787
relative phosphorylation (W fixed, at +2): 2.02
relative phosphorylation (W fixed, at +3): 0.804
relative phosphorylation (W fixed, at +4): 0.59
relative phosphorylation (W fixed, at -1): 0.696
relative phosphorylation (W fixed, at -2): 1.12
relative phosphorylation (W fixed, at -3): 0.667
relative phosphorylation (W fixed, at -4): 0.774
relative phosphorylation (W fixed, at -5): 0.911
relative phosphorylation (Y fixed, at +1): 1.37
relative phosphorylation (Y fixed, at +2): 3.9
relative phosphorylation (Y fixed, at +3): 1.04
relative phosphorylation (Y fixed, at +4): 0.465
relative phosphorylation (Y fixed, at -1): 1.26
relative phosphorylation (Y fixed, at -2): 0.984
relative phosphorylation (Y fixed, at -3): 0.586
relative phosphorylation (Y fixed, at -4): 0.726
relative phosphorylation (Y fixed, at -5): 1.14
relative phosphorylation (pThr fixed, at +1): 1.81
relative phosphorylation (pThr fixed, at +2): 0.59
relative phosphorylation (pThr fixed, at +3): 0.438
relative phosphorylation (pThr fixed, at +4): 0.686
relative phosphorylation (pThr fixed, at -1): 0.407
relative phosphorylation (pThr fixed, at -2): 0.465
relative phosphorylation (pThr fixed, at -3): 0.392
relative phosphorylation (pThr fixed, at -4): 0.723
relative phosphorylation (pThr fixed, at -5): 0.544
relative phosphorylation (pTyr fixed, at +1): 0.633
relative phosphorylation (pTyr fixed, at +2): 0.948
relative phosphorylation (pTyr fixed, at +3): 0.928
relative phosphorylation (pTyr fixed, at +4): 0.475
relative phosphorylation (pTyr fixed, at -1): 1.75
relative phosphorylation (pTyr fixed, at -2): 0.606
relative phosphorylation (pTyr fixed, at -3): 0.657
relative phosphorylation (pTyr fixed, at -4): 0.678
relative phosphorylation (pTyr fixed, at -5): 0.776
